Article PMC5359885
pKd: −log10 of the molar value.

Columns and labels:
Spectrin (Homo sapiens) = Spectrin (Homo sapiens) (UniProt P02549); details: cited from earlier work
[1] = target: F-actin (G-actin from Cytoskeleton polymerized to F-actin) (UniProt P68135); experiment: co-sedimentation; Actin Binding Protein Spin-Down Assay kit; F-actin (7 μM) incubated with His-tagged protein (SURFIN4.2^WRD2-His 12.5 to 0.0 μM; His control 7.0 μM; Pf332^WRD 4.2 μM) at room temperature 30 min; 150,000×g 1.5 h at 24 °C; Western blot of supernatant and pellet, densitometry, one-site specific binding model
[2] = target: purified human spectrin (Sigma) (human) (UniProt P02549); experiment: ELISA; spectrin coated on the plate; serially diluted His-tagged protein in PBS, overnight at 4 °C; detected with anti-His tag antibody; Scatchard analysis

Chain of UniProt P02549 (P02549 whole entry, chain 1 of 2): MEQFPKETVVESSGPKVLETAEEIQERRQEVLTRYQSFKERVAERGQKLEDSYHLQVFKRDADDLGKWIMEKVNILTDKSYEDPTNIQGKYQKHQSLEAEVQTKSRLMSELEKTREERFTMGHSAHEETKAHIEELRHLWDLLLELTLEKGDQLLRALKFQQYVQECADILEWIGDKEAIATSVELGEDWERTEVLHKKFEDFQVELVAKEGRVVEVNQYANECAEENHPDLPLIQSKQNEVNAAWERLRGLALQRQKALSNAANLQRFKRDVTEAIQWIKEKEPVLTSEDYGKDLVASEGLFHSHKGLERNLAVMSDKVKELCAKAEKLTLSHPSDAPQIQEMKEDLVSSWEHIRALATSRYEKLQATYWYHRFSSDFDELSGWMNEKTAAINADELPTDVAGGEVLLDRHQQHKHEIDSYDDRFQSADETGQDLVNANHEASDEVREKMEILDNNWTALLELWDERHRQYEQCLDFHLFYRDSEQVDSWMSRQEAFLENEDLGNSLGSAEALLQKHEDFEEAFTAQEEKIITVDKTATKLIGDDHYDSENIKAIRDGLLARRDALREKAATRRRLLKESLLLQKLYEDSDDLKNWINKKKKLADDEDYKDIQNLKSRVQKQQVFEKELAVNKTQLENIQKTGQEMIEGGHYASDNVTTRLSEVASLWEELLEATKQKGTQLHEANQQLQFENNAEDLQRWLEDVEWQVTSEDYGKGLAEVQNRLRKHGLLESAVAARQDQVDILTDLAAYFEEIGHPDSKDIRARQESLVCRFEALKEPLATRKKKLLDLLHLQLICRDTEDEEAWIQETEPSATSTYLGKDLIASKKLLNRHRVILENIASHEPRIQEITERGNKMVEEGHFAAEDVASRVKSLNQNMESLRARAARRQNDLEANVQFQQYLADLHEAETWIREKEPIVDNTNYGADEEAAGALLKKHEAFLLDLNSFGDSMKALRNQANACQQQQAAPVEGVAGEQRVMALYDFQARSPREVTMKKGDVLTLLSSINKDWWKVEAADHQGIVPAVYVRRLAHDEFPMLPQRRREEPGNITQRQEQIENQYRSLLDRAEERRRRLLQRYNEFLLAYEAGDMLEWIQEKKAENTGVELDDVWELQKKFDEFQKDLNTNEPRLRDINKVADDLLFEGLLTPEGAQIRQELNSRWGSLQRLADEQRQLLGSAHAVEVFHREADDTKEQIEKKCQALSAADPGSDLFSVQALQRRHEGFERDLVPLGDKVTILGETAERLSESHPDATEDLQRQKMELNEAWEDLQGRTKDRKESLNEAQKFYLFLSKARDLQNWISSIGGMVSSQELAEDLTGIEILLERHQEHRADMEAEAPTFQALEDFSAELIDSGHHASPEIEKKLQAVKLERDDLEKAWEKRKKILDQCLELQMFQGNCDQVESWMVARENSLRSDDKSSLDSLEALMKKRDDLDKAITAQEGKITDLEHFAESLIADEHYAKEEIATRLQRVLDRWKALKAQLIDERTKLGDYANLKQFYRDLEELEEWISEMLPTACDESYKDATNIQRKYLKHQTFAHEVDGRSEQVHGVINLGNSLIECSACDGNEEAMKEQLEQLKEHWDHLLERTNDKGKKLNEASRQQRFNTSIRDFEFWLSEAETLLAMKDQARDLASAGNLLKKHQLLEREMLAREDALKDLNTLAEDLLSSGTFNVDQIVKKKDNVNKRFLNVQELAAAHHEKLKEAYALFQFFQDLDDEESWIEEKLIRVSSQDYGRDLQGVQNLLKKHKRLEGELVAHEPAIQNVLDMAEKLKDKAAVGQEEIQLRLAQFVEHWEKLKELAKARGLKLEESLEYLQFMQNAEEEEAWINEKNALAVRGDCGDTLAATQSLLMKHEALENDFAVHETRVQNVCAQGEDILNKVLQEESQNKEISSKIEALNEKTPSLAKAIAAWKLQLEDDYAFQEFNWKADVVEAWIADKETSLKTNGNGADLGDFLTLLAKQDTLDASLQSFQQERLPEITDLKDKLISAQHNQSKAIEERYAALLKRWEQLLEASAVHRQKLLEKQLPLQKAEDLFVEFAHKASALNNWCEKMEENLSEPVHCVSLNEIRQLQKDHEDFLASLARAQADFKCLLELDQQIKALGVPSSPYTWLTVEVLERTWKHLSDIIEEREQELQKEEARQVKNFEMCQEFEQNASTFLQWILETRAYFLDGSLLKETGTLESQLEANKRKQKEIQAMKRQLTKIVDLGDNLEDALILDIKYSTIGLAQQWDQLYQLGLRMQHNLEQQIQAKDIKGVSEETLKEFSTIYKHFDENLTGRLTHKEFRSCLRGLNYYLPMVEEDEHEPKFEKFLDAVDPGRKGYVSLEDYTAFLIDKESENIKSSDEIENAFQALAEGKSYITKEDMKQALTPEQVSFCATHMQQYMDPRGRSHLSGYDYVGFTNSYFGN
Chain of UniProt P02549 (P11277 2-2137, chain 2 of 2, further chain): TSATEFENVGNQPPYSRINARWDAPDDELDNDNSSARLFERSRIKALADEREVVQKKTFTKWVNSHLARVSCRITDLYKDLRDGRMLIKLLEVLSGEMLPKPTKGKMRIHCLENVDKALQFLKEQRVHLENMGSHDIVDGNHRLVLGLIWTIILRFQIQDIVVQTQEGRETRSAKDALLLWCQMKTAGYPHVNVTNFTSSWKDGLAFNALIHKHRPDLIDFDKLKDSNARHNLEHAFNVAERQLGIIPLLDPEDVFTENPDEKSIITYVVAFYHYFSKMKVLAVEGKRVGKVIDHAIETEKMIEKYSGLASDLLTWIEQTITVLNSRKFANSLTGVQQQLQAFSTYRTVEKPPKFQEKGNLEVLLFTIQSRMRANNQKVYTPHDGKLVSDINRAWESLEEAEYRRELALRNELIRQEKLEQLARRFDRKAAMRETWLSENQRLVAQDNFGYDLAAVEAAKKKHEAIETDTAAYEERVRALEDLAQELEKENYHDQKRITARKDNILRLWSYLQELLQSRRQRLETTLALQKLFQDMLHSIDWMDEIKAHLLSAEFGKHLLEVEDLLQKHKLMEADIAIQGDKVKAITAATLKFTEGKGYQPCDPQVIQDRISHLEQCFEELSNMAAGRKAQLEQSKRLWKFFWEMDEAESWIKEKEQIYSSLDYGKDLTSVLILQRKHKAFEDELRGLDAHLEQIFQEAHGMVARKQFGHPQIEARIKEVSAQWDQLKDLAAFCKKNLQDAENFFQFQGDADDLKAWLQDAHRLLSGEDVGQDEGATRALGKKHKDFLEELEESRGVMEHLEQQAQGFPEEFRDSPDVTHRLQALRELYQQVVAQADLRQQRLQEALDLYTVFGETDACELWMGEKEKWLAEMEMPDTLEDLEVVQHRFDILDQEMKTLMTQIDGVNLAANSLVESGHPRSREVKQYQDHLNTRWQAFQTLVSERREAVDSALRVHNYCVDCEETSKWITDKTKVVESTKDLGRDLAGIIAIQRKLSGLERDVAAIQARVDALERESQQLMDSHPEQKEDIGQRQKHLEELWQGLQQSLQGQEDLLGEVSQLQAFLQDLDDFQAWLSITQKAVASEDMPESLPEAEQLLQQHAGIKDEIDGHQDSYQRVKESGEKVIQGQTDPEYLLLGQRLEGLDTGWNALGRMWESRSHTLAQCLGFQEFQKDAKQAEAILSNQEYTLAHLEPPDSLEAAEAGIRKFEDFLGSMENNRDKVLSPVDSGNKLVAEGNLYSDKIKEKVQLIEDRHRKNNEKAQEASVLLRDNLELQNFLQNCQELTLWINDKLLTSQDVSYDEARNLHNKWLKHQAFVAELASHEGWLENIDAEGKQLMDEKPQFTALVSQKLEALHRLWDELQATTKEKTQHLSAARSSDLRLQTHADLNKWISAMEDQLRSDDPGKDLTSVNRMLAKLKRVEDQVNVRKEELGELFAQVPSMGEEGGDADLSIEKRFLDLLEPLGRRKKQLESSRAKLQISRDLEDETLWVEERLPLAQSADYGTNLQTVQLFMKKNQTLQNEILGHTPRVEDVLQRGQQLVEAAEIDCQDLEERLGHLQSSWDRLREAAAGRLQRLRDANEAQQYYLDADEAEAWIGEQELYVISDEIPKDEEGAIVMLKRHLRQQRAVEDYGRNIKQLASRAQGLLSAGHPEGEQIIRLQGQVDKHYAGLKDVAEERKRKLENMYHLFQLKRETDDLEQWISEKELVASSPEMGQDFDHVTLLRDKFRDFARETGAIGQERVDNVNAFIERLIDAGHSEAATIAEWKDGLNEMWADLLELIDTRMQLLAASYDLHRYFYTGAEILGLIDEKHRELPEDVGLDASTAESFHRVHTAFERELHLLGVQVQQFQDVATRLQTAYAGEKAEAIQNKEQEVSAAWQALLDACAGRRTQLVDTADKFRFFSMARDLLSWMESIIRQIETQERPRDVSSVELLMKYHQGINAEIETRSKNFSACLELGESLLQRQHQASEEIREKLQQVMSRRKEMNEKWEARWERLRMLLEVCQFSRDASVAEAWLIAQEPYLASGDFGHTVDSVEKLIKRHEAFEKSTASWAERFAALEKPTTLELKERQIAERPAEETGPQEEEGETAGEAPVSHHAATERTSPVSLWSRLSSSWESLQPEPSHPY

Substance | pKd (Spectrin (Homo sapiens)) | pKd [1] | pKd [2]
RESA (from UniProt P13830) | 6.06 |  | 
His-tagged recombinant SURFIN4.2 WRD2 (second tryptophan-rich domain of SURFIN4.2, amino acids 1349-1567), expressed in E. coli (domain or fragment) |  | 5.29 | 6.29
